Data on 22 molecules can be found in PMC9270183 (The Journal of Experimental Medicine, 2022).

The labels stand for the following.
B1: V021 (antibody, V domains shown)
VH: QVQLQESGPGLVKPSQTLSLTCTVSGGSISSGSYYWSWIRQPVGKGLEWIGRIYTSGSTNYNPSLKSRVTISVDTSKNQFSLELSSVTAADRAVYYCARESSPASIPVRGVIWWFDPWGQGTLVTVSS
VL: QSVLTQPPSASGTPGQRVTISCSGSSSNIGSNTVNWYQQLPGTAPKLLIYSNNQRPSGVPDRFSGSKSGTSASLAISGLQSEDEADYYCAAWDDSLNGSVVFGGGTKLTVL
notes: IgG; donor BRA13
B2: V017 (antibody, V domains shown)
VH: EVQLVESGGGLVQPGGSLRLSCVASGFTFSTYSMNWVRQAPGKGLEWVSYISSSSSTIYYADSVKGRFTISRDNAKSSLYLQMNSLRAEDTAVYYCASGLCGGDCPLTCWGQGTLVTVSS
VL: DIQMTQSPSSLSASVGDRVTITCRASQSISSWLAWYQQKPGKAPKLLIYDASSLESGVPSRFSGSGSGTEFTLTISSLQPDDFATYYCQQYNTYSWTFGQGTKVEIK
notes: IgG; donor BRA13; source: recombinant monoclonal IgG, produced and purified as previously described
B3: V009 (antibody, V domains shown)
VH: EVQLVQSGAEVKKPGESLKISCKGSGYRFTSYWIGWVRQMPGKGLEWMGIIYAGDSDTRYSPSFQGQVTISVDKSISTAYLQWSSLKASDTAMYYCATTMTTGYFDYWGQGTLVTVSS
VL: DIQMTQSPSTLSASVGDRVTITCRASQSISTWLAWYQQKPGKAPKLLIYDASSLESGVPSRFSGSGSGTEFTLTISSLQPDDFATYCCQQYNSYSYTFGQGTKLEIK
notes: as for B2
B4: V022 (antibody, V domains shown)
VH: EVQLVESGGGLVKPGGSLRLSCAASGFTFSSYSMNWVRQAPGKGLEWVSSISSTNNYIYNADSVKGRFTISRDNAKNSLYLQMNSLRAEDTAVYYCARDPAGRYSYGLYYFYYMDVWGKGTTVTVSS
VL: QSALTQPASVSGSPGQSITISCTGTSSDVGGYNYVSWYQQRPGKAPKLMIYDVSNRPSGVSDRFSGSKSGNTASLTISGLQAEDEADYYCTSYTSSSSLYVFGTGTKVTVL
notes: as for B2
B5: V016 (antibody, V domains shown)
VH: QVQLVESGGGVVQPGRSLRLSCAASGFTFSNYGMHWVRQAPGKGLEWVAVISYDGSNKYYADSVKGRFTISRDNSKNTLYLQMNSVRVEDTAVYYCAKGSFGYSYVHTYFDYWGQGTLVTVSS
VL: DIQMTQSPSTLSASVGDRVTITCRASQSISSWLAWYQQKPGKAPKLLIYDASSLESGVPSRFSGSGSGTEFILTISSLQPDDFATYYCQQYNSPMYTFGQGTKLEIK
notes: as for B2
B6: V052 (antibody, V domains shown)
VH: EVQLVESGGGLVQPGGSLRLSCAASGFTVSSKYMNWVRQAPGKGLEWVSVIYIGGSTDYADSVKGRFTISRDNSKNTLYLQMNSLRVEDTAVYYCARDGWDYELVFWGQGTLVTVSS
VL: DIQMTQSPSSLSASVGDRVTITCRASQGIRNDLGWYQQKPGKAPKRLIYAASSLQSGVPSRFSGSGSGTEFTLTISSLQPEDFATYYCLQHNSYPRWTFGQGTKVEIK
notes: IgG; donor BRA15
B7: V028 (antibody, V domains shown)
VH: QVQLVESGGGVVQPGRSLRLSCAASGFTFSSYGMHWVRQAPGKGLEWVAVVSFDGSDKYYADSVKGRFTISRDNSKNTLYLQMNSLRAEDTALYYCAKGGYSYAYPRYYFDYWGQGTLVTVSS
VL: DIQMTQSPSSLSASVGDRVTITCQASQDISNYLNWYQQKPGKAPKLLIYDASNLETGVPSRFSGSGSGTDFTFTISSLQPEDIATYYCQQHDNLPITFGQGTRLEIK
notes: IgG; donor BRA14; source: recombinant monoclonal IgG, produced and purified as previously described
B8: V031 (antibody, V domains shown)
VH: B7 VH with V51I, F53Y, D57N, T69A, I70F, L93V
VL: B7 VL
notes: as for B7
B9: V047 (antibody, V domains shown)
VH: EVQLVESGGGLVQPGGSLRLSCAASGFTFSSYWMSWVRQAPGKGLEWVANIKQDGSEKYYVDSVKGRFTISRDNAKNSLYLQVNSLRAEDTAVYYCARGQSRQYSSSWYGPAPVVDYFDYWGQGTLVTVSS
VL: QSVLTQPPSASGTPGQRVTISCSGSSSNFGSNYVYWYQQLPGTAPKLLIYRNKQRPSGVPDRFSGSKSGTSASLAISGLRSEDEADYYCAAWDDSLSVLWVFGGGTKLTVL
notes: IgG; donor BRA15
B10: V020 (antibody, V domains shown)
VH: QVQLVESGGGVVQPGRSLRLSCAASGFTFSSYGMHWVRQAPGKGLEWVAVISYDGSNKYYADSVKGRFTISRDNSKNTLYLQMNSLRAEDTAVYYCAKGGWFGELLRYFDYWGQGTLVTVSS
VL: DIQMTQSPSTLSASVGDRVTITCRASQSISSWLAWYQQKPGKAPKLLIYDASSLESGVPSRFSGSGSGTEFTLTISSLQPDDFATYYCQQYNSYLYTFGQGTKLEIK
notes: as for B2
B11: V026 (antibody, V domains shown)
VH: B10 VH with A24V, D54E, F102Y, E104S, L105P, L106T, R107Y
VL: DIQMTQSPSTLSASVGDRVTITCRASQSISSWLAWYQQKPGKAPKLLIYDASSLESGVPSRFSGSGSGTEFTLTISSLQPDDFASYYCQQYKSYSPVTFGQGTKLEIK
notes: as for B2
B12: V003 (antibody, V domains shown)
VH: EVQLVQSGAEVKKPGESLKISCLGSGYSFTSYWIGWVRQMPGKGLEWMGIIFPADSDTRYSPSFQGQVIISADKSISTAYLQWSSLKASDTAMYYCARLREFGDYYYYGMDVWGQGTTVTVSS
VL: DIQLTQSPSSLSASVGDRVTITCRASQGISSYLAWYQQKPGKAPKLLIYAASTLQSGVPSRFSGSGSGTDFTLTISSLQPEDFATYYCQQLNSYPDFGQGTKLEIK
notes: as for B2
B13: V064 (antibody, V domains shown)
VH: EVQLVESGGGLVQPGGSLRLSCAASGLTVSRNYMRWVRQAPGKGLEWVSLIYSGGSTFYGDSVKGRFTISRDNSKNTLYLQMNSLRAEDTAVYYCARDLVRDGMDVWGQGTTVTVSS
VL: EIVMTQSPATLSVSPGERATLSCRASQSVSSNLAWYQQKPGQAPRLLIYGASTRATGIPARFSGSGSGTEFTLTISSLQSEDFAVYYCQQYNNWTFGQGTKVEIK
notes: IgG; donor BRA15; source: recombinant monoclonal IgG, produced and purified as previously described
B14: V013 (antibody, V domains shown)
VH: QVQLVESGGGVVQPGRSLRLSCAGSGFIFSSFAMHWVRQAPGKGLEWVAVVSYDGDNKYYADSVKGRFTISRDNSKNTLYLQMDSLRPEDTAVYFCGRDEAALWIQRWYREIDFWGQGTLVTVSS
VL: QSVLTQPPSVSGTPGQRVTISCSGSSSNTGRNPVTWYQQFPGSAPKLLISRNNQRPSGVPDRFSGSKSGTSASLAISGLQSEDEADYYCAAWDDNLNGQVFGGGTKVTVL
notes: as for B2
B15: V015 (antibody, V domains shown)
VH: EVQLVESGGGLVQPGGSLRLSCAASGFTFNSYWMSWVRQAPGKGLEWVANIKQDGSEKYYVDSVKGRFTISRDNAKNSLYLQMNSLRAEDTAVYYCARLPTYYSGFDYWGQGTLVTVSS
VL: NFMLTQPHSVSESPGKTVTISCTGSSGSIASNYVQWYQQRPGSAPTTVIYEDNQRPSGVPDRFSGSIDSSSNSASLTISGLKTEDEADYYCQSYDSTNRGVVFGGGTKLTVL
notes: as for B2
B16: V025 (antibody, V domains shown)
VH: QVQLVQSGAEVKKPGASVKVSCKASGYTFTSYGISWVRQAPGQGLEWMGWISVYNGKTNYAQKLQGRVTMTTDTSTSTAYMELRSLISDDTAVYYCARADRYNWDYGSSWGQGTLVTVSS
VL: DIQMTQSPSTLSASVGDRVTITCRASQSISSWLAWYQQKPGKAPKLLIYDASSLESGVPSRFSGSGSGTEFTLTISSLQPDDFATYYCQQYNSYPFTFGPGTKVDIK
notes: as for B2
B17: V019 (antibody, V domains shown)
VH: QVQLVQSGAEVKKPGSSVKVSCKASGGTFSTYTFSWVRQAPGQGLEWMGRIIPILGIANYAQKFQGRITITADKSTSTAYMELSSLRSEDTAVYYCAWGSYSYGYFVDIWGQGTMVTVSS
VL: DIVMTQTLLSLSVTPGQPASISCKSSQSLLHSDGKTYLYWYLQKPGQSPQLLIYEVSSRFSGVPDRFSGSGSGTDFTLKISRVEAEDVGVYYCMQGIQFHWTFGQGTKLEIK
notes: as for B2
B18: V010 (antibody, V domains shown)
VH: QVQLQESGPGLVKPSETLSLTCTVSGGSISSYYWSWIRQPPGKGLEWIGYIYYNGSTNYNPSLKSRVTISLDTSKNQFSLKLSSVTAADTAVYYCASDYYDSSGYYYGFDYWGQGTLVTVSS
VL: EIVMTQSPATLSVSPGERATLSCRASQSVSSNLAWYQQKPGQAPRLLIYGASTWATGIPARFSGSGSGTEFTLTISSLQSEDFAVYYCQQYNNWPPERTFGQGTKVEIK
notes: as for B2
B19: V011 (antibody, V domains shown)
VH: QVQLVQSGAEVKKPGASVKVSCKASGYIFTSYDINWVRQATGQGLEWMGWMNPNSGNTGYAQKFQGRVTMTRNTSISTAYMELSSLRSEDTAVYYCARASSSLTYYFDYWGQGTLVTVSS
VL: SYELTQPPSVSVAPGKTARITCGENNIGSKSVHWYQQKPGQAPVLVVYDDSDRPSGIPERFSGSNSGNTATLTISRVEAGDEADYYCQVWDSSSDPVVFGGGTKLTVL
notes: as for B2
B20: V002 (antibody, V domains shown)
VH: EVQLVESGGGLVQPGRSLRLSCAASGFTFDEYAMHWVRQAPGKGLEWVSGSSWNSGTIGYADSVKGRFTISRDNAKNSLYLQMNSLRAEDTALYYCAKSQGDYGGNSGAGYFQHWGQGTLVTVSS
VL: B19 VL with E24G, V44M, D95E, P96V, V97Y, G101T, L105V
notes: as for B2
B21: V014 (antibody, V domains shown)
VH: EVQLVESGGGLVQPGGSLRLSCAASGFTFSSYDMHWVRQATGKGLEWVSAIGTAGDTYYPGSVKGRFTISRENAKNSLYLQMNSLRAGDTAVYYCARGVITMVRGVIRDYYYYGMDVWGQGTTVTVSS
VL: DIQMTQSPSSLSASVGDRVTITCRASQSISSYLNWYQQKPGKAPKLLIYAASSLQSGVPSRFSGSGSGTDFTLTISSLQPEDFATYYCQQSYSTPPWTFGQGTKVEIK
notes: as for B2
B22: V065 (antibody, V domains shown)
VH: QVQLVQSGAEVKKPGASVKVSCKASGYTFTSYGISWVRQAPGQGLEWMGWINTDNGNTKNAQKVQGRVTMTTDTSTSTAYMELRSLRSDDTAVYYCARGGTVGAPPIEYWGQGTLVTVSS
VL: QSALTQPASVSGSPGQSITFSCTGTSSDVGGYNYVSWYQQYPGKAPKLLIYDVTNRPSGVSDRFSGSKSGNTASLTIFGLQAEDEADYYCSSFTSSNTRVFGTGTKVTVL
notes: IgG; donor BRA15

Residue numbers refer to the chain shown, from its start.

The first assay concerns the target T1, SARS-CoV-2 Wuhan-Hu-1 RBD (SARS-CoV-2 Wuhan-Hu-1, UniProt P0DTC2). As to the kind of experiment: ELISA. Particulars: both partners purified.
As for B1, the binding result is on record as “no binding”.

A further assay deals with T1, SARS-CoV-2 Wuhan-Hu-1 RBD. As to the kind of experiment: BLI. Particulars: both partners purified.
As to B2, the Kd amounted to 18.4 nM.

B3 returned a Kd of 3.22 nM. Compared with the last molecule, the Kd is about 5.7-fold lower.

Molecule B4 registered a Kd of 13 nM. Against the preceding molecule, the Kd is about 4-fold higher.

Turning to B5, the Kd is 5.84 nM. Against the preceding molecule, the Kd is about 2.2-fold lower.

Regarding B6, the binding result is reported as “no binding (tested: 100 µg/ml RBD)”.

For B7, binding was put at a Kd of 19.8 nM.

In turn, B8 came in with a Kd of 9.39 nM.

As to B9, the binding result is “no binding (tested: 100 µg/ml RBD)”.

B10: binding was characterised by a dissociation constant (Kd) of 77.3 nM.

Molecule B11 displayed a Kd of 10.7 nM. This Kd lies about 7.2-fold lower than the previous one.

Take B12: the Kd was found to be 2980 nM.

For the molecule B13, the Kd is 2.76 nM.

The molecule B14 gave a dissociation constant (Kd) of 128 nM. This Kd is about 46-fold higher than that of the molecule before.

For the molecule B15, binding was put at a Kd of 15.8 nM.

With B16, binding was characterised by a dissociation constant (Kd) of 1.93 nM.

B17 yielded a dissociation constant (Kd) of 3.84 nM.

Turning to B18, binding was put at a Kd of 2.08 nM.

With B19, the Kd was found to be 7.46 nM.

As to B20, the Kd is 1170 nM.

With B21, binding was put at a Kd of 15.1 nM.

Turning to B22, the binding result is “no binding (tested: 100 µg/ml RBD)”.
